Assay results taken from paper PMC10801562 (Antibodies, 2024).
Changes are numbered by the printed parent chain.

T1: recombinant human CD3ε-CD3δ heterodimeric protein (CD3εδ) (Homo sapiens)
T1 construct: human CD3ε of the recombinant CD3εδ heterodimer; human CD3δ of the recombinant CD3εδ heterodimer; source: in-house prepared
T1 chain 1: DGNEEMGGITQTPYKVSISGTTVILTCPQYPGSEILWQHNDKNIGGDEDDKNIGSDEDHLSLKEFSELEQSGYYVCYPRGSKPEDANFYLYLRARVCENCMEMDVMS
T1 chain 2: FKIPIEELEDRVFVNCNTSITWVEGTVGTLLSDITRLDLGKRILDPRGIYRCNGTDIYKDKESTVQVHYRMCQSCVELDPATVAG

B1: mUCHT1 mIgG1 V1+C19, homodimeric antibody with FAST-Ig V1+C19 mutations (antibody, V domains shown)
VH: EVQLQQSGPELVKPGASMKISCKASGYSFTGYTMNWVKESHGKNLEWMGLINPYKGVSTYNQKFKDKATLTVDKSSSTAYMELLSLTSEDSAVYYCARSGYYGDSDWYFDVWGQGTTLTVFS
VL: DIQMTQTTSSLSASLGDRVTISCRASQDIRNYLNWYQKKPDGTVKLLIYYTSRLHSGVPSKFSGSGSGTDYSLTISNLEQEDIATYFCQQGNTLPWTFAGGTKLEIK
notes: VH of mUCHT1; mouse IgG1 (mIgG1) heavy chain constant region; numbers count on: Eu numbering; VL of mUCHT1; mouse kappa light chain constant region (CL); numbers count on: Kabat numbering; Whole IgG of one HC and one LC; also called anti-CD3; H2L2H2L2; source: Expi293F, transiently expressed, purified (Ab-Capcher MAG2 or MonoSpin ProG); copies: 2 + 2
B2: mUCHT1 mIgG2a, homodimeric antibody without FAST-Ig mutations (antibody, V domains shown)
VH: B1 VH with E39Q
VL: B1 VL with K38Q
notes: VH of the original mouse antibody mUCHT1; mouse IgG2a (mIgG2a) heavy chain constant region; numbers count on: Eu numbering; VL of the original mouse antibody mUCHT1; mouse kappa light chain constant region (CL); Whole IgG of one HC and one LC; also called anti-CD3; H2L2H2L2; source: Expi293F, transiently expressed, purified (Ab-Capcher MAG2, MonoSpin ProA or MonoSpin ProG); copies: 2 + 2
B3: mSP34 mIgG1 V1+C19, homodimeric antibody with FAST-Ig V1+C19 mutations (antibody, V domains shown)
VH: EVQLVESGGGLVQPKGSLKLSCAASGFTFNTYAMNWVREAPGKGLEWVARIRSKYNNYATYYADSVKDRFTISRDDSQSILYLQMNNLKTEDTAMYYCVRHGNFGNSYVSWFAYWGQGTLVTVSA
VL: QAVVTQESALTTSPGETVTLTCRSSTGAVTTSNYANWVQKKPDHLFTGLIGGTNKRAPGVPARFSGSLIGDKAALTITGAQTEDEAIYFCALWYSNLWVFGGGTKLTVL
notes: VH of mSP34; mouse IgG1 (mIgG1) heavy chain constant region; numbers count on: Eu numbering; VL (lambda) of mSP34; mouse lambda light chain constant region (CL); numbers count on: Kabat numbering; Whole IgG of one HC and one LC; also called anti-CD3; H2L2H2L2; source: Expi293F, transiently expressed, purified (Ab-Capcher MAG2 or MonoSpin ProG); copies: 2 + 2
B4: mSP34 mIgG2a, homodimeric antibody without FAST-Ig mutations (antibody, V domains shown)
VH: B3 VH with E39Q
VL: B3 VL with K40E
notes: VH of the original mouse antibody mSP34; mouse IgG2a (mIgG2a) heavy chain constant region; numbers count on: Eu numbering; VL (lambda) of the original mouse antibody mSP34; mouse lambda light chain constant region (CL); Whole IgG of one HC and one LC; also called anti-CD3; H2L2H2L2; source: Expi293F, transiently expressed, purified (Ab-Capcher MAG2, MonoSpin ProA or MonoSpin ProG); copies: 2 + 2
B5: mOKT3 mIgG1 V1+C19, homodimeric antibody with FAST-Ig V1+C19 mutations (antibody, V domains shown)
VH: not shown
VL: QIVLTQSPAIMSASPGEKVTMTCSASSSVSYMNWYQKKSGTSPKRWIYDTSKLASGVPAHFRGSGSGTSYSLTISGMEAEDAATYYCQQWSSNPFTFGSGTKLEIN
notes: VH of mOKT3; mouse IgG1 (mIgG1) heavy chain constant region; numbers count on: Eu numbering; VL of mOKT3; mouse kappa light chain constant region (CL); numbers count on: Kabat numbering; Whole IgG of one HC and one LC; also called anti-CD3; H2L2H2L2; source: Expi293F, transiently expressed, purified (Ab-Capcher MAG2 or MonoSpin ProG); copies: 2 + 2
B6: mHIT3a mIgG2a, homodimeric antibody without FAST-Ig mutations (antibody, V domains shown)
VH: QVQLQESGAELARPGASVKMSCKASGYTFTRYTMHWVKQRPGQGLEWIGYINPSRGYTNYNQKFKDKATLTTDKSSSTAYMELTRLTSEDSAVYYCARYYDDHYCLDYWGQGTTVTVSS
VL: B5 VL with Q1D, V3E, K37Q, H60R, R62S, I105L, N106K
notes: VH of the original mouse antibody mHIT3a; mouse IgG2a (mIgG2a) heavy chain constant region; numbers count on: Eu numbering; VL of the original mouse antibody mHIT3a; mouse kappa light chain constant region (CL); Whole IgG of one HC and one LC; also called anti-CD3; H2L2H2L2; source: Expi293F, transiently expressed, purified (Ab-Capcher MAG2, MonoSpin ProA or MonoSpin ProG); copies: 2 + 2
B7: mOKT3 mIgG2a V1+C19, homodimeric antibody with FAST-Ig V1+C19 mutations (antibody, V domains shown)
VH: not shown
VL: B5 VL
notes: VH of mOKT3; mouse IgG2a (mIgG2a) heavy chain constant region; numbers count on: Eu numbering; VL of mOKT3; mouse kappa light chain constant region (CL); numbers count on: Kabat numbering; Whole IgG of one HC and one LC; also called anti-CD3; H2L2H2L2; source: Expi293F, transiently expressed, purified (Ab-Capcher MAG2, MonoSpin ProA or MonoSpin ProG); copies: 2 + 2
B8: mHIT3a mIgG2a V1+C19, homodimeric antibody with FAST-Ig V1+C19 mutations (antibody, V domains shown)
VH: B6 VH with Q39E
VL: B5 VL with Q1D, V3E, H60R, R62S, I105L, N106K
notes: VH of mHIT3a; mouse IgG2a (mIgG2a) heavy chain constant region; numbers count on: Eu numbering; VL of mHIT3a; mouse kappa light chain constant region (CL); numbers count on: Kabat numbering; Whole IgG of one HC and one LC; also called anti-CD3; H2L2H2L2; source: Expi293F, transiently expressed, purified (Ab-Capcher MAG2, MonoSpin ProA or MonoSpin ProG); copies: 2 + 2
B9: mHIT3a mIgG1 V1+C19, homodimeric antibody with FAST-Ig V1+C19 mutations (antibody, V domains shown)
VH: B6 VH with Q39E
VL: B5 VL with Q1D, V3E, H60R, R62S, I105L, N106K
notes: VH of mHIT3a; mouse IgG1 (mIgG1) heavy chain constant region; numbers count on: Eu numbering; VL of mHIT3a; mouse kappa light chain constant region (CL); numbers count on: Kabat numbering; Whole IgG of one HC and one LC; also called anti-CD3; H2L2H2L2; source: Expi293F, transiently expressed, purified (Ab-Capcher MAG2 or MonoSpin ProG); copies: 2 + 2
B10: mHIT3a mIgG1, homodimeric antibody without FAST-Ig mutations (antibody, V domains shown)
VH: B6 VH
VL: B5 VL with Q1D, V3E, K37Q, H60R, R62S, I105L, N106K
notes: VH of the original mouse antibody mHIT3a; mouse IgG1 (mIgG1) heavy chain constant region; numbers count on: Eu numbering; VL of the original mouse antibody mHIT3a; mouse kappa light chain constant region (CL); Whole IgG of one HC and one LC; also called anti-CD3; H2L2H2L2; source: Expi293F, transiently expressed, purified (Ab-Capcher MAG2 or MonoSpin ProG); copies: 2 + 2
B11: m12F6 mIgG1 V1+C19, homodimeric antibody with FAST-Ig V1+C19 mutations (antibody, V domains shown)
VH: QVQLQQSGAELARPGASVKMSCKASGYTFTSYTMHWVKERPGQGLEWIGYINPSSGYTKYNQKFKDKATLTADKSSSTAYMQLSSLTSEDSAVYYCARWQDYDVYFDYWGQGTTLTVSS
VL: QIVLSQSPAILSASPGEKVTMTCRASSSVSYMHWYQKKPGSSPKPWIYATSNLASGVPARFSGSGSGTSYSLTISRVEAEDAATYYCQQWSSNPPTFGGGTKLETK
notes: VH of m12F6; mouse IgG1 (mIgG1) heavy chain constant region; numbers count on: Eu numbering; VL of m12F6; mouse kappa light chain constant region (CL); numbers count on: Kabat numbering; Whole IgG of one HC and one LC; also called anti-CD3; H2L2H2L2; source: Expi293F, transiently expressed, purified (Ab-Capcher MAG2 or MonoSpin ProG); copies: 2 + 2

Molecular target: T1, recombinant human CD3ε-CD3δ …
Test: SPR; Biacore T200, 37 °C, pH 7.4, PB-P+; antibody captured (630 RU) by anti-mouse IgG (Fc) antibody on a CM4 chip; human CD3εδ as analyte, 1.2-4800 nmol/L; 1:1 binding model (mUCHT1, mSP34)
Conditions: both partners purified

Kd [µM]	Binder
0.00132	B1
0.00102	B2
0.0569	B3
0.016	B4

Molecular target: T1, recombinant human CD3ε-CD3δ …
Test: SPR; Biacore T200, 37 °C, pH 7.4, PB-P+; antibody captured (630 RU) by anti-mouse IgG (Fc) antibody on a CM4 chip; human CD3εδ as analyte, 18.8-19,200 nmol/L (mHIT3a, mOKT3) or 75-76,800 nmol/L (m12F6); steady state model
Conditions: both partners purified

Kd [µM]	Binder
4.48	B5
10.4	B6
7.68	B7
10.4	B8
8.32	B9
7.54	B10
16.1	B11
